Laboratory results from paper PMC6555819, “Comprehensive study of nuclear receptor DNA binding provides a revised framework for understanding receptor specificity”.

B1: NRC3_random_hg19_69_o1 (dsDNA)
DNA 1: GCCCAGGTGGCAGGATCCCTGCATCTGGTTTCCTCAGCGATTGACAGCGTAGAATGAAGG
DNA 2: CCTTCATTCTACGCTGTCAATCGCTGAGGAAACCAGATGCAGGGATCCTGCCACCTGGGC
B2: NRC3_wobSeed97_DR4_G16T_o1 (dsDNA)
DNA 1: GCCAAACTAGGTCACTAAAGGTCAAAGTCGAATGACGCGATTGACAGCGTAGAATGAAGG
DNA 2: CCTTCATTCTACGCTGTCAATCGCGTCATTCGACTTTGACCTTTAGTGACCTAGTTTGGC
B3: NRC3_wobSeed21_DR0_A19C_o1 (dsDNA)
DNA 1: GCCGTCAAAGTTCAAGGTCACGTAACAGAAAGCAGCGCGATTGACAGCGTAGAATGAAGG
DNA 2: CCTTCATTCTACGCTGTCAATCGCGCTGCTTTCTGTTACGTGACCTTGAACTTTGACGGC
B4: NRC3_random_hg19_448_o1 (dsDNA)
DNA 1: GCAGAAGAAGACCAAAGTATTCCCTCACTGCCTATGGCGATTGACAGCGTAGAATGAAGG
DNA 2: CCTTCATTCTACGCTGTCAATCGCCATAGGCAGTGAGGGAATACTTTGGTCTTCTTCTGC
B5: NRC3_random_hg19_12_o1 (dsDNA)
DNA 1: GCTTCCAGAATCAGACAATCACTGGGCTTGAACCAGGCGATTGACAGCGTAGAATGAAGG
DNA 2: CCTTCATTCTACGCTGTCAATCGCCTGGTTCAAGCCCAGTGATTGTCTGATTCTGGAAGC
B6: NRC3_wobSeed134_DR5_G11T_o1 (dsDNA)
DNA 1: GCGCTGCTAGTTCAACTGATGGTCAGCTAAAGCTCGGCGATTGACAGCGTAGAATGAAGG
DNA 2: CCTTCATTCTACGCTGTCAATCGCCGAGCTTTAGCTGACCATCAGTTGAACTAGCAGCGC
B7: NRC3_wobSeed101_DR4_C13T_o1 (dsDNA)
DNA 1: GCCCTTACGGGTTACTCCAGGTTATAGCATCGGAGTGCGATTGACAGCGTAGAATGAAGG
DNA 2: CCTTCATTCTACGCTGTCAATCGCACTCCGATGCTATAACCTGGAGTAACCCGTAAGGGC
B8: NRC3_random_hg19_50_o1 (dsDNA)
DNA 1: GCTGAAGAGTTTCTAACTCTTTGTTCTTGAATCAAAGCGATTGACAGCGTAGAATGAAGG
DNA 2: CCTTCATTCTACGCTGTCAATCGCTTTGATTCAAGAACAAAGAGTTAGAAACTCTTCAGC
B9: NRC3_random_hg19_261_o1 (dsDNA)
DNA 1: GCCTGGCTCCAGACAGACAAGAAGACTCCTTCAGTCGCGATTGACAGCGTAGAATGAAGG
DNA 2: CCTTCATTCTACGCTGTCAATCGCGACTGAAGGAGTCTTCTTGTCTGTCTGGAGCCAGGC
B10: NRC3_random_hg19_272_o1 (dsDNA)
DNA 1: GCGTGCATTTGCTCCCAGAGGCTCTGCTCTTGCCCTGCGATTGACAGCGTAGAATGAAGG
DNA 2: CCTTCATTCTACGCTGTCAATCGCAGGGCAAGAGCAGAGCCTCTGGGAGCAAATGCACGC
B11: NRC3_random_hg19_424_o1 (dsDNA)
DNA 1: GCGCCTTCTCTACAGGGCATACAGACTGACATTGAGGCGATTGACAGCGTAGAATGAAGG
DNA 2: CCTTCATTCTACGCTGTCAATCGCCTCAATGTCAGTCTGTATGCCCTGTAGAGAAGGCGC
B12: NRC3_wobSeed29_DR1_G9A_o1 (dsDNA)
DNA 1: GCGCTTACAGGTCAAAGGTTATAGCATGAATAGAATGCGATTGACAGCGTAGAATGAAGG
DNA 2: CCTTCATTCTACGCTGTCAATCGCATTCTATTCATGCTATAACCTTTGACCTGTAAGCGC

Legend:
[1] = target: LXRa:RXRa (Homo sapiens, UniProt Q13133;P19793 full;full); experiment: no ligand; PBM; 270 nM : 90 nM RXRa; PBS pH 7.4, 2% milk, 0.02% Triton X-100, 1 mM DTT, BSA, 0.4 mg/ml salmon testes DNA; conditions: tags: His kept;His cleaved; copies: 1;1; label: surface-attached array probe
Chain of LXRa:RXRa (Q13133 whole entry, chain 1 of 2): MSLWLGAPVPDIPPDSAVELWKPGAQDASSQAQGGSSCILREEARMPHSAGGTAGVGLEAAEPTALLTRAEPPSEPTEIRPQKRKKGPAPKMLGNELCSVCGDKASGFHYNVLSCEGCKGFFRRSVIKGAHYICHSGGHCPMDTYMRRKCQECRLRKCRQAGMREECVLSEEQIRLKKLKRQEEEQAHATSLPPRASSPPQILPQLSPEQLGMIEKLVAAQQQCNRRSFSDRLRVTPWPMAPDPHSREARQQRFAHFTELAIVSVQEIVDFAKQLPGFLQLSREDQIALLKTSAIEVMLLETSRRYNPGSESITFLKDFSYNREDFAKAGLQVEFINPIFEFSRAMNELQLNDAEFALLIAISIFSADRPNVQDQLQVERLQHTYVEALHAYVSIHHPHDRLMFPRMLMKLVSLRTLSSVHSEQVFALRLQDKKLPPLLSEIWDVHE
Chain of LXRa:RXRa (P19793 whole entry, chain 2 of 2): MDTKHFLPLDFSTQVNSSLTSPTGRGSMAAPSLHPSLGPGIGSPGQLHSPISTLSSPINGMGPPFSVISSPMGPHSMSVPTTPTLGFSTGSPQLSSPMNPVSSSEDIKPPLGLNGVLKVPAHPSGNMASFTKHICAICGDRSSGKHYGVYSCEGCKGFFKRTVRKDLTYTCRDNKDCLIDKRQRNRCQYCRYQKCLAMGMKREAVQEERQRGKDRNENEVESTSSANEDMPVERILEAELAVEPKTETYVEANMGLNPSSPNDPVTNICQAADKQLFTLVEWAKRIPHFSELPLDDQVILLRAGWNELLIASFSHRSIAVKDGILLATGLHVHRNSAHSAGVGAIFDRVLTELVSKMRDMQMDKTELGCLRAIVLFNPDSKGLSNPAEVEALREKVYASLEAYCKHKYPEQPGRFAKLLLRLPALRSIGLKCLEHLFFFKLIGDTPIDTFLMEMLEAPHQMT
How it was run: (§1)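 Each nuclear receptor dimer, without ligand, was incubated for 1 h on custom Agilent 4×180K protein-binding microarrays. Binding was detected with antibodies against each partner (one per run), and scanned fluorescence was regression-normalized. The binding z-scores are referenced to random human genomic background probes.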

[2] = target: FXR:RXRa (Homo sapiens, UniProt Q96RI1;P19793 full;full); experiment: as above; conditions: tags: His kept;His cleaved; copies: 1;1; label: surface-attached array probe
Chain of FXR:RXRa (Q96RI1 whole entry, chain 1 of 2): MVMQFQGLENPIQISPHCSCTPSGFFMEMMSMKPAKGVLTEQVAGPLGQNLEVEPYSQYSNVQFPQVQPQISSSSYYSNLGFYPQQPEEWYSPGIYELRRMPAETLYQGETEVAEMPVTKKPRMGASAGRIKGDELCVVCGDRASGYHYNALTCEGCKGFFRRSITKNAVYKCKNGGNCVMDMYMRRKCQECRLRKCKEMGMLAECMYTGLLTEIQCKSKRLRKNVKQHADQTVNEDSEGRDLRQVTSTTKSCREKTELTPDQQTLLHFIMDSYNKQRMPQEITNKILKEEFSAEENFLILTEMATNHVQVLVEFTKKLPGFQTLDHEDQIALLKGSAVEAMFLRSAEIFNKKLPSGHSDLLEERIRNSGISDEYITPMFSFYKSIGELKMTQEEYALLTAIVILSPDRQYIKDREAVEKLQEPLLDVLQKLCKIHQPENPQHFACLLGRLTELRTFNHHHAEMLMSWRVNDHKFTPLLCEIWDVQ
Chain of FXR:RXRa (P19793 whole entry, chain 2 of 2): as the sequence (P19793 whole entry, chain 2 of 2) above
How it was run: as §1

[3] = target: LXRb:RXRa (Homo sapiens, UniProt P55055;P19793 full;full); experiment: as above; conditions: tags: His kept;His cleaved; copies: 1;1; label: surface-attached array probe
Chain of LXRb:RXRa (P55055 whole entry, chain 1 of 2): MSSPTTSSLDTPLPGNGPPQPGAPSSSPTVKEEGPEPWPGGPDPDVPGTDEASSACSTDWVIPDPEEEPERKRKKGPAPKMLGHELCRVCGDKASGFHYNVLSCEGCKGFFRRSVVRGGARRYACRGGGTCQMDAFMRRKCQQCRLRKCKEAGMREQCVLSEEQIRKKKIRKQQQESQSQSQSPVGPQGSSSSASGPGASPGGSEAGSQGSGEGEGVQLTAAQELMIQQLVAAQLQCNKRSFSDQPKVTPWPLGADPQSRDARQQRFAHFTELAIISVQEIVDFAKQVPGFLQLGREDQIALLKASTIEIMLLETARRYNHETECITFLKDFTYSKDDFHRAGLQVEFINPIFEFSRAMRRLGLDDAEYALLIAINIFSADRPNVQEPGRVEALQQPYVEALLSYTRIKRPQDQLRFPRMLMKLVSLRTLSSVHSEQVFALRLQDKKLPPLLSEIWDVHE
Chain of LXRb:RXRa (P19793 whole entry, chain 2 of 2): as the sequence (P19793 whole entry, chain 2 of 2) above
How it was run: as §1

[4] = target: RARb:RXRa (Homo sapiens, UniProt P10826;P19793 full;full); experiment: as above; conditions: tags: His kept;His cleaved; copies: 1;1; label: surface-attached array probe
Chain of RARb:RXRa (P10826 whole entry, chain 1 of 2): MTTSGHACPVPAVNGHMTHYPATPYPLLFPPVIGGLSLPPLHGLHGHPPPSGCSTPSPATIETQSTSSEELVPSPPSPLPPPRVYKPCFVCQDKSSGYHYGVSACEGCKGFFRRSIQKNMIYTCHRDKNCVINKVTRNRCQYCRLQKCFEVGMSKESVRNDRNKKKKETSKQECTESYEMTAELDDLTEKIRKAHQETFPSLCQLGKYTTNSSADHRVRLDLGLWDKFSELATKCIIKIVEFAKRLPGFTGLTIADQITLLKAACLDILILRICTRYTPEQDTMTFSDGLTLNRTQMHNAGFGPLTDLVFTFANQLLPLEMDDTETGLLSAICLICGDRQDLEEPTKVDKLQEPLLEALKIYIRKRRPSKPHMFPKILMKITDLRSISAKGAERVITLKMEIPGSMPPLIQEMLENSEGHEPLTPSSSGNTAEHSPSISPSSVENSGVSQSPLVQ
Chain of RARb:RXRa (P19793 whole entry, chain 2 of 2): as the sequence (P19793 whole entry, chain 2 of 2) above
How it was run: as §1

[5] = target: PPARa:RXRa (Homo sapiens, UniProt Q07869;P19793 full;full); experiment: as above; conditions: tags: GST kept;His cleaved; copies: 1;1; label: surface-attached array probe
Chain of PPARa:RXRa (Q07869 whole entry, chain 1 of 2): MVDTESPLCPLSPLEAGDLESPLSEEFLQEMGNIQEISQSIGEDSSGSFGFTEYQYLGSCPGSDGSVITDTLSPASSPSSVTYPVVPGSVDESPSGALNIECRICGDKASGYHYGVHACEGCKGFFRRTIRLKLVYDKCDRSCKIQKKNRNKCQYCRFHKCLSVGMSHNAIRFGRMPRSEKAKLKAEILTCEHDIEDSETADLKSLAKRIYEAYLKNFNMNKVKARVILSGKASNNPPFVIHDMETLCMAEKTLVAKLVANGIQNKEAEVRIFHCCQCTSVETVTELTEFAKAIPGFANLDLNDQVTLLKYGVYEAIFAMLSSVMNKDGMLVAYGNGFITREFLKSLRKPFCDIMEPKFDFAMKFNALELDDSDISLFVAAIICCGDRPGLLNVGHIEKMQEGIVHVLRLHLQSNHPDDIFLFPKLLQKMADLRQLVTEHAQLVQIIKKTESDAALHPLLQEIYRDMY
Chain of PPARa:RXRa (P19793 whole entry, chain 2 of 2): as the sequence (P19793 whole entry, chain 2 of 2) above
How it was run: as §1

[6] = target: VDR:RXRa (Homo sapiens, UniProt P11473;P19793 full;full); experiment: as above; conditions: tags: His kept;His cleaved; copies: 1;1; label: surface-attached array probe
Chain of VDR:RXRa (P11473 whole entry, chain 1 of 2): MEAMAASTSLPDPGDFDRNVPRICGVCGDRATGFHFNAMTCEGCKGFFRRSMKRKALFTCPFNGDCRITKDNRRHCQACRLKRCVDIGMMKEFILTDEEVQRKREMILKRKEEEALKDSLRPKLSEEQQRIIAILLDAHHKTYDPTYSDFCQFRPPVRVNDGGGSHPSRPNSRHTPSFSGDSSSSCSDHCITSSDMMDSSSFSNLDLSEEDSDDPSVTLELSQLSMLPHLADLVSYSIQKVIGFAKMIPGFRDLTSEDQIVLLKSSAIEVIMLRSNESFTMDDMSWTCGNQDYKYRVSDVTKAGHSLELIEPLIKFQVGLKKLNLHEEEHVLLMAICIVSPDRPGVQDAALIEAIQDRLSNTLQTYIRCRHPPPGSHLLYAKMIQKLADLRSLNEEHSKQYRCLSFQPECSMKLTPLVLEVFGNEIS
Chain of VDR:RXRa (P19793 whole entry, chain 2 of 2): as the sequence (P19793 whole entry, chain 2 of 2) above
How it was run: as §1

[7] = target: RXRa (Homo sapiens, UniProt P19793); experiment: no ligand; PBM; 180 nM; PBS pH 7.4, 2% milk, 0.02% Triton X-100, 1 mM DTT, BSA, 0.4 mg/ml salmon testes DNA; conditions: tags: His cleaved; chain copies: 2; label: surface-attached array probe
Chain of RXRa (P19793 whole entry): as the sequence (P19793 whole entry, chain 2 of 2) above

Row | Binder | binding signal [1] | binding signal [2] | binding signal [3] | binding signal [4] | binding signal [5] | binding signal [6] | binding signal [7]
1 | B1 | -0.63 PBM z-score against 500 random probes | -0.63 PBM z-score against 500 random probes |  |  |  |  | 
2 | B2 | 9.5 PBM z-score against 500 random probes |  | 8.55 PBM z-score against 500 random probes |  |  |  | 
3 | B3 | 6.86 PBM z-score against 500 random probes | 7.82 PBM z-score against 500 random probes |  | 5.98 PBM z-score against 500 random probes | 6.5 PBM z-score against 500 random probes |  | 
4 | B4 | -0.67 PBM z-score against 500 random probes |  |  |  | -0.65 PBM z-score against 500 random probes | -0.71 PBM z-score against 500 random probes | 
5 | B5 | -0.13 PBM z-score against 500 random probes | 0.11 PBM z-score against 500 random probes |  | -0.1 PBM z-score against 500 random probes |  |  | -0.01 PBM z-score against 500 random probes
6 | B6 | 0.25 PBM z-score against 500 random probes |  |  |  | 0.24 PBM z-score against 500 random probes |  | 0.29 PBM z-score against 500 random probes
7 | B7 | 8.39 PBM z-score against 500 random probes |  | 6.25 PBM z-score against 500 random probes |  |  |  | 
8 | B8 | -0.55 PBM z-score against 500 random probes |  |  |  |  | -0.07 PBM z-score against 500 random probes | 
9 | B9 | -1.08 PBM z-score against 500 random probes |  |  |  |  |  | -0.45 PBM z-score against 500 random probes
10 | B10 | -0.36 PBM z-score against 500 random probes |  |  | -0.53 PBM z-score against 500 random probes |  |  | 
11 | B11 | 0.42 PBM z-score against 500 random probes |  |  |  |  | -0.21 PBM z-score against 500 random probes | 
12 | B12 | 6.61 PBM z-score against 500 random probes | 8.14 PBM z-score against 500 random probes |  |  |  |  | 
